Nine molecules from article PMC7927982 can be followed below.

The target in the first data set is T1, LARP1 La-Module (Homo sapiens, UniProt Q6PKG0-3 310-540). Kind of data set: EMSA. In general terms: In EMSA bound probe runs differently from free probe, usually more slowly.
AAAAAAAAAAAAAAAAAAAAAAAAA (ssRNA) [poly(A) 25-mer] yielded a Kd of 40 ± 1 nM.

A further data set has as its target T1, LARP1 La-Module. Kind of data set: competition.
On to GGGGGGGGGGGGGGGGGGG (ssRNA) [poly(G) 19-mer], for which the binding result was “binds”.

In a further data set the target is T1, LARP1 La-Module. Kind of data set: EMSA. This is another data set of the same source.
Consider GUGGCGCCUCGGAGGCGUUCAGCUGCUUCAAG (ssRNA) [RPS6 5'UTR delTOP], for which the binding result was “no binding”.
Consider CCUUCUCCCCGGCGGUUAGUGCUGAGAGUGCGGAGUGUGUG (ssRNA) [PABPC1 42-mer], for which the binding result is given as “no binding”.
In the case of CCUCUUUUCCGUGGCGCCUCGGAGGCGUUCAGCUGCUUCAAG (ssRNA) [RPS6 5'UTR], the binding result is “binds”.
Same read-out and setting: the same measure for CUCUCUUCCACAGGAGGCCUACACGCCGCCGCUUGUGCUGCAGCC (ssRNA) [RPS18 5'UTR]: “no binding”.
On the same count and under the same terms, in the case of CCUUUUCCAAGCGGCUGCCGAAG (ssRNA) [RPL13A 5'UTR] it was “binds”; in that of AAGCGGCUGCCGAAG (ssRNA) [RPL13A 5'UTR delTOP], “no binding”; in that of AAGAUUUUUUGAGUAACAAAU (ssRNA) [RPS6 3'UTR], “no binding”.

Usually Kd stands for the equilibrium constant for the complex coming apart. Lower therefore signals a tighter complex.
